Experimental data taken from the supplement of paper PMC9112550, “Optimization of the antimicrobial peptide Bac7 by deep mutational scanning” (BMC Biology, 2022).

test system: Escherichia coli TOP10; assay: shrunken log2 fold change of peptide-encoding DNA abundance (4.5 h post-induction vs induction); higher = less antimicrobial activity (less host growth inhibition); details: time post-induction: 4.5 h; library: site-saturation at positions 5, 18, 19, 20
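Also: peptides expressed intracellularly from a pBAD plasmid library in pooled LB shake-flask culture, induced with 0.3% L-arabinose, DNA abundance read by NGS, three biological replicates, DESeq2 with apeglm shrinkage.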

RRIRCRPPRLPRPRPRPLTMPRP and RRIRDRPPRLPRPRPRPVKPPRP are within 0.2 log units of each other in “shrunken log2 fold change” value: -0.262 for the first, -0.0934 for the second.

RRIRLRPPRLPRPRPRPVKAPRP and RRIRKRPPRLPRPRPRPWSWPRP are within 0.2 log units of each other in “shrunken log2 fold change” value: -0.0553 for the first, 0.00624 for the second.

Compared with RRIRLRPPRLPRPRPRPCNIPRP, RRIRTRPPRLPRPRPRPGRAPRP is higher in “shrunken log2 fold change” value: -0.00101 for the first, 0.446 for the second.

First: RRIRNRPPRLPRPRPRPRHSPRP
Second: RRIRCRPPRLPRPRPRPIWQPRP
The “shrunken log2 fold change” value of the first is lower: -0.424 for the first, 0.102 for the second.

Compared with RRIRKRPPRLPRPRPRPSKDPRP, RRIRPRPPRLPRPRPRPGNIPRP is lower in “shrunken log2 fold change” value: 0.395 for the first, -0.000778 for the second.

RRIRPRPPRLPRPRPRPWEFPRP and RRIRWRPPRLPRPRPRPVLFPRP are within 0.2 log units of each other in “shrunken log2 fold change” value: -0.0818 for the first, -0.0589 for the second.

Going from RRIRWRPPRLPRPRPRPVLVPRP to RRIRYRPPRLPRPRPRPMKEPRP, the “shrunken log2 fold change” value falls from 0.298 to -0.00804.

Compared with RRIRMRPPRLPRPRPRPRTGPRP, RRIRTRPPRLPRPRPRPKIDPRP is lower in “shrunken log2 fold change” value: 0.561 for the first, -0.0576 for the second.

Compared with RRIRSRPPRLPRPRPRPYNFPRP, RRIRGRPPRLPRPRPRPLDRPRP is higher in “shrunken log2 fold change” value: -0.36 for the first, 0.732 for the second.

Going from RRIRMRPPRLPRPRPRPIDEPRP to RRIRIRPPRLPRPRPRPDSWPRP, the “shrunken log2 fold change” value falls from -0.0525 to -0.268.

RRIRIRPPRLPRPRPRPWSFPRP and RRIRYRPPRLPRPRPRPWRPPRP are within 0.2 log units of each other in “shrunken log2 fold change” value: -0.0245 for the first, -0.0287 for the second.

RRIRVRPPRLPRPRPRPIYLPRP and RRIRTRPPRLPRPRPRPSIKPRP are within 0.2 log units of each other in “shrunken log2 fold change” value: -0.543 for the first, -0.556 for the second.

RRIRFRPPRLPRPRPRPPYYPRP and RRIRCRPPRLPRPRPRPCSFPRP are within 0.2 log units of each other in “shrunken log2 fold change” value: -0.464 for the first, -0.57 for the second.

First: RRIRQRPPRLPRPRPRPDYHPRP
Second: RRIRSRPPRLPRPRPRPDRFPRP
The “shrunken log2 fold change” value of the first is lower: -0.269 for the first, -0.0456 for the second.

RRIRTRPPRLPRPRPRPSFNPRP and RRIRDRPPRLPRPRPRPNNSPRP are within 0.2 log units of each other in “shrunken log2 fold change” value: -0.507 for the first, -0.422 for the second.

RRIRDRPPRLPRPRPRPPIQPRP and RRIRKRPPRLPRPRPRPAWSPRP are within 0.2 log units of each other in “shrunken log2 fold change” value: 0.242 for the first, 0.202 for the second.

Going from RRIRFRPPRLPRPRPRPWGIPRP to RRIRERPPRLPRPRPRPGIQPRP, the “shrunken log2 fold change” value falls from -0.0116 to -0.398.

Going from RRIRVRPPRLPRPRPRPPIRPRP to RRIRMRPPRLPRPRPRPWRPPRP, the “shrunken log2 fold change” value rises from -0.0403 to 0.308.

RRIRTRPPRLPRPRPRPRVFPRP and RRIRERPPRLPRPRPRPPACPRP are within 0.2 log units of each other in “shrunken log2 fold change” value: 0.212 for the first, 0.0779 for the second.

Compared with RRIRWRPPRLPRPRPRPQSHPRP, RRIRERPPRLPRPRPRPAYHPRP is lower in “shrunken log2 fold change” value: 0.105 for the first, -0.223 for the second.

Going from RRIRYRPPRLPRPRPRPNTCPRP to RRIRRRPPRLPRPRPRPMGRPRP, the “shrunken log2 fold change” value rises from -0.155 to 0.464.

Going from RRIRQRPPRLPRPRPRPCYFPRP to RRIRFRPPRLPRPRPRPINIPRP, the “shrunken log2 fold change” value rises from -0.734 to -0.113.

First: RRIRARPPRLPRPRPRPDWNPRP
Second: RRIRTRPPRLPRPRPRPQMHPRP
The “shrunken log2 fold change” value of the first is higher: 0.0789 for the first, -0.426 for the second.

First: RRIRCRPPRLPRPRPRPRLLPRP
Second: RRIRGRPPRLPRPRPRPMHAPRP
The “shrunken log2 fold change” value of the first is lower: 0.159 for the first, 1.66 for the second.

RRIRPRPPRLPRPRPRPEDYPRP and RRIRRRPPRLPRPRPRPIVWPRP are within 0.2 log units of each other in “shrunken log2 fold change” value: -0.0172 for the first, 0.0811 for the second.

RRIRPRPPRLPRPRPRPCCTPRP and RRIRHRPPRLPRPRPRPNLIPRP are within 0.2 log units of each other in “shrunken log2 fold change” value: -0.12 for the first, -0.00121 for the second.

Going from RRIRERPPRLPRPRPRPLFRPRP to RRIRWRPPRLPRPRPRPHASPRP, the “shrunken log2 fold change” value falls from 1.09 to 0.134.

Compared with RRIRMRPPRLPRPRPRPTHAPRP, RRIRIRPPRLPRPRPRPIGIPRP is lower in “shrunken log2 fold change” value: 0.995 for the first, -0.0608 for the second.

RRIRRRPPRLPRPRPRPYRDPRP and RRIRHRPPRLPRPRPRPSSCPRP are within 0.2 log units of each other in “shrunken log2 fold change” value: -0.111 for the first, -0.0272 for the second.

RRIRLRPPRLPRPRPRPSICPRP and RRIRQRPPRLPRPRPRPKLHPRP are within 0.2 log units of each other in “shrunken log2 fold change” value: -0.0314 for the first, -0.201 for the second.

RRIRDRPPRLPRPRPRPRHMPRP and RRIRLRPPRLPRPRPRPNPEPRP are within 0.2 log units of each other in “shrunken log2 fold change” value: 0.0599 for the first, 0.0435 for the second.

Compared with RRIRKRPPRLPRPRPRPQYAPRP, RRIRTRPPRLPRPRPRPMIFPRP is lower in “shrunken log2 fold change” value: 0.0233 for the first, -0.738 for the second.

Going from RRIRLRPPRLPRPRPRPLAWPRP to RRIRTRPPRLPRPRPRPGSEPRP, the “shrunken log2 fold change” value falls from 0.32 to -0.0538.

RRIRQRPPRLPRPRPRPIHAPRP and RRIRQRPPRLPRPRPRPIAMPRP are within 0.2 log units of each other in “shrunken log2 fold change” value: -0.0062 for the first, -0.0149 for the second.

Going from RRIRERPPRLPRPRPRPFRAPRP to RRIRHRPPRLPRPRPRPVHTPRP, the “shrunken log2 fold change” value falls from 0.0204 to -0.292.

Going from RRIRFRPPRLPRPRPRPSRAPRP to RRIRRRPPRLPRPRPRPIALPRP, the “shrunken log2 fold change” value falls from 0.352 to 0.0331.

Compared with RRIRERPPRLPRPRPRPGPVPRP, RRIRPRPPRLPRPRPRPVVCPRP is higher in “shrunken log2 fold change” value: 0.137 for the first, 0.53 for the second.

With RRIRTRPPRLPRPRPRPVSLPRP the “shrunken log2 fold change” value was -0.298.
